Molecular target: T1, human CD22 on cells (human, UniProt P20273 20-847)
T1 construct: whole, on cells; also called CD22-transfected 300.19 cells; CD22+ Raji cells
T1 sequence (looked up): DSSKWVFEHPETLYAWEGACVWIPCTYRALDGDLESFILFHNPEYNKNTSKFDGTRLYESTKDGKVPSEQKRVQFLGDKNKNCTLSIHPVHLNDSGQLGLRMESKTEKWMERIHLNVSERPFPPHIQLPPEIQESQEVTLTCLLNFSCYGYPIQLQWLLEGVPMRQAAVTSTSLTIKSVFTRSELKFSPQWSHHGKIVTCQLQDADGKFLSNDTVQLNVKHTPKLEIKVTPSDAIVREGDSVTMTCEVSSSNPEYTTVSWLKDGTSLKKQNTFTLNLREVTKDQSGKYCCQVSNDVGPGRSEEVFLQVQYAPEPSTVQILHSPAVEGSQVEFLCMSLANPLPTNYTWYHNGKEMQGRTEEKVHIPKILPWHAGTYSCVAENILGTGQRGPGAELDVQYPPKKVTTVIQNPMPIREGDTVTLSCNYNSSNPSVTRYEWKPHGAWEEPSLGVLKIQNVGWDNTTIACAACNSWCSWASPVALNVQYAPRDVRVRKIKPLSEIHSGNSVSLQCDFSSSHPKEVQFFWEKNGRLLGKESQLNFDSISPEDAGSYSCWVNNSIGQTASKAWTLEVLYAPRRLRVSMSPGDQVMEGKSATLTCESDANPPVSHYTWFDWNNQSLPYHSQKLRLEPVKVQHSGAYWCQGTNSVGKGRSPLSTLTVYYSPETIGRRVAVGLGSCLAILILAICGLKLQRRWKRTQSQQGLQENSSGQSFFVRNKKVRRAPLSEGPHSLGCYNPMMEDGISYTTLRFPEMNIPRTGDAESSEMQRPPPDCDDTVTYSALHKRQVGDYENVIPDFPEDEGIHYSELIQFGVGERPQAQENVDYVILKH
Assay: flow cytometry of hybridoma supernatants on CD22-transfected 300.19 cells
Source text: MoAbs reactive with human CD22 were generated by fusion of NS-1 myeloma cells with splenocytes from a Balb/c mouse previously immunized three times with 30×10⁶ CD22-transfected 300.19 cells. Supernatants from hybridoma-containing wells were screened by flow cytometry for moAbs reactive with CD22-transfected 300.19 cells. Three reactive hybridomas were chosen for further characterization and were subcloned by limiting dilution (clones hCD22.7, hCD22.316 and hCD22.401). The three antibodies were of the IgG1K isotype, as determined using a mouse moAb isotyping kit (Boehringer Mannheim, Mannheim, Germany). Antibody specificity was further validated using a CD22-transfected COS cell line (pUNO1-hCD22; InvivoGen, Toulouse, France), the cell lines Raji, Daudi, […], U266 and Jurkat, and peripheral blood (PB) mononuclear cells (PBMCs). CD22 epitope binding to the hCD22.7 clone was determined by crossblocking with an antibody against the N-terminal domain of CD22 (S-HCL-1). The CD22-specific scFv derived from the hCD22.7 clone was obtained using the mouse IgG Library Primer Set (Progen, Heidelberg, Germany).

- binding result: binds
B1: anti-CD22 monoclonal antibody clone hCD22.7 (antibody, V domains shown)
VH: EVQLQESGPSLVKPSQTLSLTCSVTGDSITSGYWNWIRKFPGNKLEYMGYISYSGSTYYNPSLKSRISITRDTSKNQYYMQLKSVTTEDTATYYCARYPSPDAMNYWGQGTSVTVSS
VL: not shown
notes: also called hCD22.7 moAb; hCD22.7 clone
